Assay [1] deals with Flag-tagged EspM2 (EHEC O157:H7 Sakai).
The target is the same in assay [2]. This is another data set of the same source.

In turn, GST-EspO1-2 W77A (natural protein) yielded a percent of HeLa cells with stress fibers when transfected with EspM2 and EspO1-2 W77A expression vectors (38% with the EspM2 vector only) (% of transfected cells) in assay [1] of 20.
“glutathione-S-transferase (GST)-tagged EspO1-2 (natural protein)”: the percent of HeLa cells with stress fibers when transfected with both EspM2 and EspO1-2 expression vectors (38% with the EspM2 vector only), 72 h post-transfection (% of transfected cells) in assay [2] is 10.
GST-EspO1-2 W77H (natural protein) had a percent of HeLa cells with stress fibers when transfected with EspM2 and EspO1-2 W77H expression vectors (38% with the EspM2 vector only) (% of transfected cells) in assay [1] of 20.

The values above are taken from PMC3568036.
